We go through 11 molecules from patent US20150110794A1 (CELL SIGNALING TECHNOLOGY, published 2015).

Positions count from the first letter of the chain named.

In test [1] the target is CMV AD169 envelope glycoprotein B (gB) (human cytomegalovirus strain AD169, UniProt P06473 32-906). In words: cell-based or functional assay.
Test [2] addresses T1, AD4 polypeptide (cloned AD4 fragment of CMV AD169 envelope glycoprotein B) (human cytomegalovirus strain AD169, UniProt P06473 112-438).
T1 construct: also called antigenic domain 4
In words: SPR (Biacore T200), antibody captured on anti-human IgG CM5 chip, AD4 polypeptide as analyte, 1:1 model. (SPR reads the build-up and loss of mass on a sensor chip optically.)

B1: C15 (antibody, V domains shown)
VH: EMQLLESGGGLVQPGGSLRVSCAASGFTFSSHAMSWVRQAPGKGLEWVSSISRSGDNTFYADSVKGRFTISRDNIKSTVYLQMNSLRAEDTAVYFCASRYTEGDSVWYFDVWGRGTLVTVSS
VL: EVVLTQSPATLSVSAGDRATLSCRASQSVSRDLAWYQQKPGQAPRLLIYGASTRATDIPVRFSGSGSGTEFSLTISSLQSEDFAVYYCHQYKHWPRTFGQGTKVEIKR
notes: Human IgG, transiently expressed in HEK293
One may read the Kd as the concentration at which binding is half-saturated. Read a low Kd as a tighter complex. The koff is a measure of how fast the partners let go of each other. What is called kon is a measure of how fast the partners come together. Low readings indicate slow association, high ones fast association. As to B1, in test [1], the “CMV Neutr. IC50” value was < 0.3 µg/mL. Moreover, in test [2], the Kd worked out at 6.44 nM, the koff is 0.00234 s⁻¹ and the kon amounted to 363000 M⁻¹ s⁻¹.

B2: C11 (antibody, V domains shown)
VH: EVQLLESGGGLIQPGGSLRLSCVASGFTFTRHAINWVRQAPGKGLEWVSAISGSGSSTYYADSVKGRFTISRDNAKNTLYLQMNRLRVEDTAVYYCAKDKDYGMVAATPDAFDIWGQGTMVTVSS
VL: QSVLTQPPSVSAAPGQKVTISCSGSRSNIAKNYVYWYQQLPGTAPKLLIYDTNKRPSGIPDRFSGSKSGTSATLAITGLQTGDEADYYCGTWDSSLKTAIFFGGGTTVTVLG
notes: as for B1
Turning to B2, the “CMV Neutr. IC50” value in test [1] is > 50 µg/mL. Moreover, in test [2], the Kd came out at 5.67 nM, the koff is 0.00109 s⁻¹ and the kon was 192000 M⁻¹ s⁻¹.

B3: C12 (antibody, V domains shown)
VH: QVQLQESGPGLVKPLETLSLTCTVSGGSIRGGDYWWTWVRQPPGKGLEWLGYIYRTGSTYYNPSLKSRLTISLDTSKNHFSLKLASATAADTAVYYCARDPGDDSGGNSGLDYWGQGVLVSVSS
VL: QSMLTQPPSVSAAPGQKVIISCSGSSSNIGNNFVNWYQKFPGTAPKLLIYDNDKRPSGIPDRFSGSKSGTSATLGITGLQTGDEAEYYCGTWDSSLTAGVFGGGTTLTVLG
notes: as for B1
Take B3: the “CMV Neutr. IC50” value in test [1] is > 50 µg/mL. Also, in test [2], the Kd came out at 3.27 nM, the koff was 0.00369 s⁻¹ and the kon was determined as 1.13e+06 M⁻¹ s⁻¹.

B4: C6 (antibody, V domains shown)
VH: QVQLQESGPGLVKPLETLSLTCTVSGGSISSGSFYWTWIRQHPGKGLEWIGYIHSSGTTYYNPSLKSRLNISRDTSKNQFTLKLSSVTAADTAVYYCAKEIIQWPRRWFDPWGQGTLVTVSS
VL: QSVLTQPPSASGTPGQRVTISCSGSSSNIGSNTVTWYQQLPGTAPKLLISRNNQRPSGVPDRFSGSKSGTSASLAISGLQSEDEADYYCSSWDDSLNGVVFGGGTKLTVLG
notes: as for B1
As for B4, the “CMV Neutr. IC50” value in test [1] was < 2 µg/mL. In test [2], this molecule showed a Kd of 2.5 nM, a koff of 0.00138 s⁻¹ and a kon of 554000 M⁻¹ s⁻¹.

B5: C8 (antibody, V domains shown)
VH: B4 VH
VL: B2 VL with A30G, T52N, A99G, T107K, V108L
notes: as for B1
Regarding B5, the “CMV Neutr. IC50” value in test [1] is > 50 µg/mL. In test [2], this molecule displayed a Kd of 4.49 nM, a koff of 0.00186 s⁻¹ and a kon of 414000 M⁻¹ s⁻¹.

B6: C3 (antibody, V domains shown)
VH: B4 VH
VL: B3 VL with F33Y, K39Q, F40L, E86D, S95T, T106K
notes: as for B1
In the case of B6, the “CMV Neutr. IC50” value in test [1] was < 0.07 µg/mL. Moreover, in test [2], the Kd was determined as 0.549 nM, the koff came to 0.00068 s⁻¹ and the association rate constant (kon) was determined as 1.24e+06 M⁻¹ s⁻¹.

B7: C5 (antibody, V domains shown)
VH: B4 VH
VL: B3 VL
notes: as for B1
As for B7, the “CMV Neutr. IC50” value in test [1] is < 6 µg/mL. In test [2], this molecule showed a Kd of 0.278 nM, a koff of 0.000201 s⁻¹ and a kon of 721000 M⁻¹ s⁻¹.

B8: C7 (antibody, V domains shown)
VH: B4 VH
VL: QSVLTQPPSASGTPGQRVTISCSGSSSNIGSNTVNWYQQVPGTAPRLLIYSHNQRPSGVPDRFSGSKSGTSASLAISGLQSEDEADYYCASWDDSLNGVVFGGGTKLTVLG
notes: as for B1
Regarding B8, the “CMV Neutr. IC50” value in test [1] is > 50 µg/mL. In test [2], the Kd is 7.76 nM, the koff stood at 0.00604 s⁻¹ and the kon was determined as 779000 M⁻¹ s⁻¹.

B9: C10 (antibody, V domains shown)
VH: B4 VH
VL: QSVLTQPPSASGTPGQRVTISCSGSSSNIGSNYIDWYQQLPGTGPQLLTYRNNQRPSGVPDRFSGSKSGTSASLAISGLRSEDEADYYCASWDDSLSSPVFGGGTKLTVLG
notes: as for B1
For B9, the “CMV Neutr. IC50” value in test [1] was > 50 µg/mL. In test [2], this molecule displayed a Kd of 3.97 nM, a koff of 0.00197 s⁻¹ and a kon of 496000 M⁻¹ s⁻¹.

B10: C4 (antibody, V domains shown)
VH: B4 VH
VL: QSVLTQPPSVSAAPGQKVIISCSGSGSNIGSHYVNWYQQLPGAAPKLLIYDNDKRPSGIPDRFSGSKSGTSATLAITGLQTGDEADYHCATWDGTLTAGVFGGGTKLTVLG
notes: as for B1
In the case of B10, in test [1], the “CMV Neutr. IC50” value was < 0.04 µg/mL. In test [2], this molecule had an equilibrium dissociation constant (Kd) of 0.695 nM, a koff of 0.00063 s⁻¹ and a kon of 908000 M⁻¹ s⁻¹.

B11: C9 (antibody, V domains shown)
VH: B4 VH
VL: B2 VL
notes: as for B1
With B11, the “CMV Neutr. IC50” value in test [1] was > 50 µg/mL. In test [2], this molecule showed a Kd of 3.95 nM, a koff of 0.00238 s⁻¹ and a kon of 602000 M⁻¹ s⁻¹.
